# Experimental data taken from patent US7579180B2, “Beta secretase polypeptides” (Amgen Inc., priority 1999, dated 2009).
# B1: beta-secretase-Fc: amino acids 1-460 of human beta-secretase fused to the Fc portion of human IgG1, alanine-valine-threonine at the junction (protein)
# chain: TQHGIRLPLRSGLGGAPLGLRLPRETDEEPEEPGRRGSFVEMVDNLRGKSGQGYYVEMTVGSPPQTLNILVDTGSSNFAVGAAPHPFLHRYYQRQLSSTYRDLRKGVYVPYTQGKWEGELGTDLVSIPHGPNVTVRANIAAITESDKFFINGSNWEGILGLAYAEIARPDDSLEPFFDSLVKQTHVPNLFSLQLCGAGFPLNQSEVLASVGGSMIIGGIDHSLYTGSLWYTPIRREWYYEVIIVRVEINGQDLKMDCKEYNYDKSIVDSGTTNLRLPKKVFEAAVKSIKAASSTEKFPDGFWLGEQLVCWQAGTTPWNIFPVISLYLMGEVTNQSFRITILPQQYLRPVEDVATSQDDCYKFAISQSSTGTVMGAVIMEGFYVVFDRARKRIGFAVSACHVHDEFRTAAVEGPFVTLDMEDCGYNIPQTDESTLMTIAYAVT
# modifications: left off: a dimerising Fc or GST
# notes: amino acids 1-460 of human beta-secretase fused to the Fc portion of human IgG1, alanine-valine-threonine at the junction
# Target: T1, human beta-secretase-Fc fusion (Homo sapiens, UniProt P56817)
# T1 construct: A plasmid containing cDNA encoding amino acids 1-460 of beta-secretase fused to the Fc portion of human IgG; made in house; host or cells: human embryonic kidney 293T cells, stably transfected; purified from conditioned medium on protein A
# Test: Beta-secretase activity assay: cleavage of DNP-labeled APP peptides, HPLC
# Format: biochemical
# Settings: Sw, Wt and MV peptides; FIG. 11
# Procedure: FIG. 11 is a graph depicting the ability of human beta-secretase-Fc fusion to cleave various APP peptides. The X-axis is the amount of enzyme in the reaction mixture and the Y-axis is the amount of cleavage (denoted as pmol product formed) of each of three substrate peptides. “Sw” refers to the APP peptide with the Swedish mutation; “Wt” refers to wild type APP peptide; and “MV” refers to a mutated APP peptide.
# Recombinant native as well as mutant beta secretase polypeptides were assayed for activity by measuring the ability of the molecule to cleave various A-beta peptides.
# Each assay was conducted as follows. […] Quenched reactions were analyzed by HPLC on a 5 μm, C18 reversed-phase column (Sephasil Peptide, 4.6×100 mm; Amersham Pharmacia Biotech, Piscataway, N.J.) using first a linear gradient of 18-31.5 percent acetonitrile in 0.1 percent TFA over 40 minutes, then 31.5-81 percent acetonitrile for 1 minute, then 81 percent acetonitrile for 4 minutes, and then returning to 18-percent acetonitrile for several minutes to reequilibrate the column. […] Proteolysis of the Sw and WT octapeptides was evaluated using a linear gradient of 27-37.8 percent acetonitrile over 24 minutes on the same column.
# Both product and substrate were monitored by absorbance at 360 nm. […]
# The concentration of standard was determined from the extinction coefficient of DNP (e365nm=16 mM^−1cm^−1). […]
# T1 sequence (P56817 with tags, fused parts or gaps limits assumed): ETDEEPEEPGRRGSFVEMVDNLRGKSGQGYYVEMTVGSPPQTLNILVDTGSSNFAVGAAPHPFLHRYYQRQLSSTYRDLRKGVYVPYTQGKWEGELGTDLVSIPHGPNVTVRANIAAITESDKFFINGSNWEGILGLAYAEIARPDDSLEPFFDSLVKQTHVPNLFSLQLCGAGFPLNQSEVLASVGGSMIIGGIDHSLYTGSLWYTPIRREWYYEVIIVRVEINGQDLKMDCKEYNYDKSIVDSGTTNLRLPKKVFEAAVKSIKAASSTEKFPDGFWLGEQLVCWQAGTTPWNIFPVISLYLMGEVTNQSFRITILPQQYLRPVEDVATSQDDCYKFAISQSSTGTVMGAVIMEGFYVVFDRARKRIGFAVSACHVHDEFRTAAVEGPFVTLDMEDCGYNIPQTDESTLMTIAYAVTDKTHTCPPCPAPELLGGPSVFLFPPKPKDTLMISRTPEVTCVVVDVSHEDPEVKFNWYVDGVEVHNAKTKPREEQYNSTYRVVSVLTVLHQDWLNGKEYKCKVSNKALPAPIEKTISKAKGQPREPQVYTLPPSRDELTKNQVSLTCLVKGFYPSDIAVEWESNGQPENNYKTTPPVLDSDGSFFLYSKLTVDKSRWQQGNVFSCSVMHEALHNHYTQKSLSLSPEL
molecule,measurement,value
B1,substrate specificity of the enzyme,has the same substrate specificity that has previously been described for beta-secretase from intact cells
